Assay results published in patent publication US20160074473A1, “EFFECT OF PHOSPHOLIPID COMPOSITION OF RECONSTITUTED HDL ON ITS CHOLESTEROL EFFLUX AND ANTI-INFLAMMATORY PROPERTIES” (Kinemed, Inc., priority 2014, published 2016).
Values joined by “and” are separate entries in the source; they are usually repeats but may differ in a detail not shown here. Equal entries are not always repeated. Where two headings read alike, the source gives them in different places.

Experiments:
[1] = cited from earlier work
[2] = Alpha-helical content by circular dichroism; format: physicochemical
Description: High-density lipoprotein-like 5A-POPC and 5A-SM complexes were prepared by a co-lyophilization procedure (25, 26). Peptide and phospholipids were dissolved in glacial acetic acid and mixed at 1:1.25 w/w ratio (approximately 1:7 molar ratio) and lyophilized. The powder was hydrated with bicarbonate buffered saline and cycled between 50° C. and room temperature to facilitate 5A-lipid binding. The resulting HDL complexes were analyzed by gel permeation chromatography, with UV detection at 220 nm, using Tosoh TSK gel G3000SWx1 column (Tosoh Bioscience, King of Prussia, Pa.). The HDL hydrodynamic diameters were determined by dynamic light scattering (DLS), using a Zetasizer Nano, Malvern Instruments (Westborough, Mass.). The number and intensity average values were reported. The alpha-helical contents of free and lipid bound 5A peptide were determined by Jasco J715 (Jasco, Easton, Md.) circular dichroism spectropolarimeter. Samples at 0.1 mg/mL concentration were loaded into a quartz cuvette (d=0.2-cm path length), and CD spectra from 185 to 240 nm were recorded at 24° C. […]
High-density lipoprotein-like 5A-POPC and 5A-SM complexes were prepared by a co-lyophilization procedure (25, 26). […] The resulting HDL complexes were analyzed by gel permeation chromatography, with UV detection at 220 nm, using Tosoh TSK gel G3000SWx1 column (Tosoh Bioscience, King of Prussia, Pa.). […]

[3] = target: T1, BHK cells stably transfected with human ABCG1 (Homo sapiens, UniProt P45844); assay: Cholesterol efflux assay in vitro, ABCG1; format: cell-based; conditions: 18 h incubation
T1 construct: expressed in transfected cells; host or cells: BHK cells (stably transfected, mifepristone-inducible)
Description: (§1) Cholesterol efflux studies were performed, as described previously (25, 26). Briefly, BHK-mock and BHK stably transfected cells with human ABCA1 cDNA, ABCG1 cDNA and SR-BI cDNA were labeled for 24 h with 1 μCi/ml of ^3H-cholesterol in minimum essential medium medium plus 10% fetal calf serum. Transporters were induced with 10 nM mifepristone in Dulbecco's modified Eagle's medium (DMEM), containing 0.2 mg/ml of fatty acid-free bovine serum albumin for 18 h. Following induction of the transporters, the cells were washed and test articles were added at 0.1, 2.5, 5, 10, 20 and 40 μM in DMEM-BSA containing mifepristone. The cholesterol efflux by BSA, free 5A peptide, purified HDL, and ApoA-I were used as quality control standards. […] Radioactive counts in media and cell fractions were measured by liquid scintillation counting, and percent cholesterol effluxed was calculated by dividing media count by the sum of media and cell counts. […]
(§2) Cholesterol efflux studies were performed, as described previously (25, 26). […] Radioactive counts in media and cell fractions were measured by liquid scintillation counting, and percent cholesterol effluxed was calculated by dividing media count by the sum of media and cell counts.

[4] = target: T2, BHK cells stably transfected with human SR-BI (Homo sapiens, UniProt Q8WTV0); assay: Cholesterol efflux assay in vitro, SR-BI; format: cell-based; conditions: 18 h incubation
T2 construct: expressed in transfected cells; host or cells: BHK cells (stably transfected, mifepristone-inducible)
T2 sequence (Q8WTV0 1-552): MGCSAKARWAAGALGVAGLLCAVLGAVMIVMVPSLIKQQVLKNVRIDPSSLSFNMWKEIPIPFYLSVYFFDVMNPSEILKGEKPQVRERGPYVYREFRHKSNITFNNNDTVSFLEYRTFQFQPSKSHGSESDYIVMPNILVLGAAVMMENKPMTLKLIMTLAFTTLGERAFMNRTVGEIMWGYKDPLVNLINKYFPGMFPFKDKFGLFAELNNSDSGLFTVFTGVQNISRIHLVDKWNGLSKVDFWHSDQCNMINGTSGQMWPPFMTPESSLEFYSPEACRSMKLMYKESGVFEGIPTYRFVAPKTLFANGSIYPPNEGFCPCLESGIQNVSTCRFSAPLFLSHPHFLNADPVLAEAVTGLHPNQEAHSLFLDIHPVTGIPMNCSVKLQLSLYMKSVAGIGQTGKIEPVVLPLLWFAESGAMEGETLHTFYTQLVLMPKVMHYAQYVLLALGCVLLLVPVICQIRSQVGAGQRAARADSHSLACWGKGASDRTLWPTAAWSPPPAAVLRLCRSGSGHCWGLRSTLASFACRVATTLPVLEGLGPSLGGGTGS
Description: as §1, §2

Row | Substance | helicity ([1]; associated with lipids) | helicity ([1]; lipid-free state) | Helicity (%) ([2]; Example 1, 0.1 mg/mL, 24° C.) | alpha-helix content ([2]; Example 2, n=3, mean±SD) | cholesterol efflux via ABCG1 [3] | cholesterol efflux via SR-BI [4]
1 | apoA-I: the main protein in High Density Lipoprotein (HDL) | over 80% | about 20% | – | – | – | –
2 | DWLKAFYDKVAEKLKEAFPDWAKAAYDKAAEKAKEAA [5A, ApoA-I mimetic, 37-amino acid-long bi-helical peptide] | – | – | 19% and 18.9% | 18.8±0.3% | relatively low cholesterol efflux | relatively low cholesterol efflux
